Measured values published in US20050048572A1 (Genentech, published 2005).

Legend:
[1] = target: T1, Human VEGF 165 (human, UniProt P15692 27-191); assay: SPR (BIAcore-3000), apparent Kd from koff/kon, VEGF165 immobilised, 37 C
T1 construct: mature; The 165-residue isoform without signal peptide; made in E. coli as in Simmons & Yansura 1996
Method: (§1) A CM-5 biosensor chip (Biacore, Inc.) was activated according to the manufacturer's instructions for amine coupling. […] Unreacted groups were blocked with 1 M ethanolamine. […] The kinetics of IgG variants binding to immobilized VEGF were measured with 2-fold serial dilutions beginning with 500 nM IgG in running buffer (PBS, 0.05% Tween, 0.01% sodium azide) at a flow rate of 20 μl/min (see FIG. 12). Binding measurements were carried out at 37° C. Regeneration of the chip after each cycle was with 20 mM HCl, followed by washing, an injection of 100 mM Tris pH 8.0, and additional washing.
(§2) The kinetic curves were fit to a 1:1 Langmuir binding model using BIAcore evaluation software version 3, which calculated association (kₒₙ) and dissociation (koff) rates. An apparent equilibrium constant, Kd, was calculated from koff/kₒₙ for each variant (Table 7).

[2] = target: T1, Human VEGF 165; assay: SPR (BIAcore-3000), VEGF165 immobilised on CM-5 chip, IgG in solution, 37 C, 1:1 Langmuir fit
Method: as §1, §2

T1 sequence (P15692 other isoform, or with tags, fused parts or gaps): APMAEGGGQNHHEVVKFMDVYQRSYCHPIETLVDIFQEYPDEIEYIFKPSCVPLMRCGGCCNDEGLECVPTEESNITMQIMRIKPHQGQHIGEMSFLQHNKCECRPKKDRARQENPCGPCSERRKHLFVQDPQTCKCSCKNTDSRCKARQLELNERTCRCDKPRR

B1: anti-VEGF antibody VNERK, full-length, wild type hinge, produced in E. coli (antibody, V domains shown)
VH: EVQLVESGGGLVQPGGSLRLSCAASGYTFTNYGINWVRQAPGKGLEWVGWINTYTGEPTYAADFKRRFTFSLDTSKSTAYLQMNSLRAEDTAVYYCAKYPHYYVNERKSHWYFDVWGQGTLVTVSS
VL: DIQLTQSPSSLSASVGDRVTITCSASQDISNYLNWYQQKPGKAPKVLIYFTSSLHSGVPSRFSGSGSGTDFTLTISSLQPEDFATYYCQQYSTVPWTFGQGTKVEIKR
notes: Full-length aglycosylated human IgG1 made in E. coli; also called VNERK wild type; VNERK hinge wild type
- Kd [1]: 0.25 nM
- koff [2]: 5.9e-06 s⁻¹
- kon [2]: 23000 M⁻¹ s⁻¹
